Source: US20100105622A1 (UNIVERSIDAD DE BARCELONA, published 2010)

Target: Bovine Serum Albumin (BSA) (bovine, UniProt P02769 25-607)
Experiment: ELISA, BSA coated on the plate, rsCD6 added at several concentrations, detected with biotin-labeled anti-CD6 mAb (MAE) and streptavidin-HRP
Method: Twelve μg of LPS purified from E. coli O111:B4 (Sigma), Zymosan from Saccharomyces cerevisae (Sigma), peptidoglycan purified from S. aureus (Fluka) or Bovine Serum Albumin (BSA), were used to coat 96-well microtiter plates (Nunc, Roskilde, Denmark) in PBS, overnight at 4° C. Non-specific binding to the wells was prevented by the addition of PBS containing 1% BSA for 1 h at room temperature. Several concentrations of rsCD6 were then added to the wells and incubated for 3 h at room temperature. Bound protein was detected by the addition of a 1:200 dilution of biotin-labeled mAb anti-CD6 (MAE) for 1 h at RT, followed by a 1:1000 dilution of HRP-labeled streptavidin (DAKO, Glostrup, Denmark), which was incubated for 30 min at RT. Between each incubation step, unbound protein or HRP-streptavidin was washed off three times with PBS plus 0.01% Tween-20. Color was developed by adding 3,3′,5,5′-tetramethylbenzidine liquid substrate (Sigma), and the absorbance was read at 405 nm. The assay was repeated three times with similar results.

Bovine Serum Albumin (BSA), sequence (P02769 25-607 limits assumed): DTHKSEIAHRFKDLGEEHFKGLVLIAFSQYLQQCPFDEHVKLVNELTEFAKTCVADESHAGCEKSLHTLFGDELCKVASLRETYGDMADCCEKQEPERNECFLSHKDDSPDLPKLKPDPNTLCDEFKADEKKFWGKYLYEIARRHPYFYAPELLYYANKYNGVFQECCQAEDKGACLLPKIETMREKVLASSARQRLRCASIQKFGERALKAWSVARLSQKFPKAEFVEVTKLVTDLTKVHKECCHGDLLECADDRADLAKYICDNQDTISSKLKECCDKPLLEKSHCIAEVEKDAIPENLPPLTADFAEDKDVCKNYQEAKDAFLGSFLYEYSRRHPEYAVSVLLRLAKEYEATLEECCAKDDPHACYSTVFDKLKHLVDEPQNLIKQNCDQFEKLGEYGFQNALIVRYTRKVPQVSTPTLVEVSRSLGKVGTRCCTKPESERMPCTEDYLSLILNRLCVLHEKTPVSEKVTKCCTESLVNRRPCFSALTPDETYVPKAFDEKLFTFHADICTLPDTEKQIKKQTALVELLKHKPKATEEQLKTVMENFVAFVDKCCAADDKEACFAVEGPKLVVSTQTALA

B1: rsCD6, recombinant soluble ectodomain of human CD6 (amino acids D25 to E384, immature protein numbering) (receptor, UniProt P30203 25-384, looked up)
chain: DQLNTSSAESELWEPGERLPVRLTNGSSSCSGTVEVRLEASWEPACGALWDSRAAEAVCRALGCGGAEAASQLAPPTPELPPPPAAGNTSVAANATLAGAPALLCSGAEWRLCEVVEHACRSDGRRARVTCAENRALRLVDGGGACAGRVEMLEHGEWGSVCDDTWDLEDAHVVCRQLGCGWAVQALPGLHFTPGRGPIHRDQVNCSGAEAYLWDCPGLPGQHYCGHKEDAGAVCSEHQSWRLTGGADRCEGQVEVHFRGVWNTVCDSEWYPSEAKVLCQSLGCGTAVERPKGLPHSLSGRMYYSCNGEELTLSNCSWRFNNSNLCSQSLAARVLCSASRSLHNLSTPEVPASVQTVTIE
notes: range 25-384; Used as unpurified serum-free culture supernatant to coat wells in the gp120 ELISA; also called recombinant soluble CD6; rCD6
  binding result: no binding
